Source: patent US10280218B2, “Antibodies binding to BMP4, and uses thereof” (ACADEMISCH MEDISCH CENTRUM, priority 2014, dated 2019)
“Also recorded” adds a separate entry of the source.

T1: BMP2 (Homo sapiens, UniProt P12643)
T1 sequence (P12643 283-396): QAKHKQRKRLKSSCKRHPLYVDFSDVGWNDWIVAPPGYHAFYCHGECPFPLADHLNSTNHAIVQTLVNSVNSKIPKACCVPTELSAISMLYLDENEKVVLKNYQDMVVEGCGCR

T2: BMP7 (Homo sapiens, UniProt P18075)
T2 sequence (P18075 293-431): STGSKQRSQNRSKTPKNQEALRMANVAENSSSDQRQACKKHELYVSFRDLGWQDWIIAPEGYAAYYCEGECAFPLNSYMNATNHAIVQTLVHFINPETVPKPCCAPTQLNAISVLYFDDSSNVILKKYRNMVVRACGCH

B1: hNoggin (protein)
chain: QHYLHIRPAPSDNLPLVDLIEHPDPIFDPKEKDLNETLLRSLLGGHYDPGFMATSPPEDRPGGGGGAAGGAEDLAELDQLLRQRPSGAMPSEIKGLEFSEGLAQGKKQRLSKKLRRKLQMWLWSQTFCPVLYAWNDLGSRFWPRYVKVGSCFSKRSCSVPEGMVCKPSKSVHLTVLRWRCQRRGGQRCGWIPIQYPIISECKCSC
B2: C8E7: E7 linked to C8, hetero-dimer VHH bihead (protein)
chain: EVQLVESGGGLVQAGGSLRLSCAASGRTFRINDMGWYRQAPGKSRDMVARITSGGNTNYADSVKGRFTISRDNAKNTVYLQMNSLKPEDTAVYYCNADGLRFDSTRYRPFDSWGQGTQVTVSSGGGGSGGGGSEVQLVESGGGLVQAGGSLRLSCAASGSIRGFVAMAWYRQAPGKQREWVATVTNGGTLYGDSVKGRFTGSRDNAKNTVYLQMNSLKPEDTAVYYCALRQIGASGYDYWGQGTQVTVSS

Columns and labels:
BMP2 = target: T1, BMP2; test: BMP activity luciferase reporter assay (BRE-luciferase, ID1 promoter) in C2C12 cells; type: cell-based, mouse
Procedure: (§1) One of the most studied BMP target genes is the Inhibitor of Differentiation 1 (ID1). This is an immediate early gene that is activated by binding of the phosphorylated SMADs to its promoter region (López-Rovira et al., 2002). Thus, we employed the BMP-responsive C2C12 cells, which are stably transfected with the BRE-luciferase vector containing the BMP-Responsive-Element (the mouse ID1 promoter) cloned into the pGL3 luciferase vector (Zilberberg 2007). […] C2C12 cells were treated with the different BMPs with or without our VHHs or human Noggin at a concentration of 5 μg/ml. Luciferase activity was measured after 16 hours incubation. Most of the transcriptional data is in concordance with the results obtained with the phosphorylation of SMAD1/5/8.
(§2) C2C12 cells were plated in 96-well plates at 5×10^3 cells/well and cells were allowed to attach overnight. 100 μl of DMEM with 0.1% BSA were added in each well. VHH antibodies and human Fc-Noggin at the indicated concentrations were added at the same time. Wells with unstimulated cells were added as controls. Cells were treated in triplicate with the BMPs at the indicated concentrations for 16 hours. Luciferase activity was measured by adding 100 μl of luciferase substrate solution from the Bright-Glo™ Luciferase Assay System (Promega Benelux, Leiden, The Netherlands). After 3 minutes of incubation, luciferase activity was measured with Synergy HT Multi-Mode Microplate Reader (Biotek, Winooski, Vt., United States). Luciferase values were normalized to background activity (activity of wells with no cells) and represented as ratio to the activity of BMP-stimulated cells.
(§3) To evaluate the extent of this increase in potency, the IC50 of the different VHHs were determined in a dose-dependent inhibition assay in C2C12 cells (FIG. 25). C2C12 cells were plated in 96-well plates at 5×10^3 cells/well and cells were allowed to attach overnight 100 μl of DMEM with 0.1% BSA were added in each well. VHH antibodies were added at the indicated concentrations at the same time as 5 ng/ml BMP4 (FIG. 25A-B, D) or 50 ng/ml of BMP2 (FIG. 25C,D). Luciferase activity was measured after 16 hours. Values are represented as ratio to the activity of BMP-stimulated cells. […] However, its effects were more striking for BMP2 rather than BMP4 inhibition. […] The IC50 values for BMP4 inhibition observed in our VHHs are considerably lower than those observed for anti-BMP4 commercially available from R&D (Katagiri et al 1994) and those described in WO_2008/030611.
(§4) C2C12 cells were cultured in 96-well plates at 5×10^3 cells/well. After overnight attachment cells were stimulated with 10 ng/ml hBMP4 (Cat No. 314-BP-020; R&D Systems), 50 ng/ml hBMP2 (Cat No. 355-BM-010; R&D Systems), 200 ng/ml hBMP5 (Cat No. 615-BMC-020; R&D Systems), 50 ng/ml hBMP6 (Cat No. 506-BP-020; R&D Systems), 200 ng/ml hBMP7 (Cat No. 354-BP-010; R&D Systems), 25 ng/ml hBMP9 (Cat No. 3209-BP-010; R&D Systems), 25 ng/ml hBMP10 (Cat No. 2926-BP-025; R&D Systems), 50 ng/ml hBMP12 (Cat No. 779-G7-010; R&D Systems) and with or without VHH antibodies: C4C4 and C8C8 at 500 ng/ml; natural antagonist: mNoggin (Cat No. 1967-NG-025; R&D Systems), hNoggin (Cat No. 6057-NG; R&D Systems) and mGremlin (cat#956-GR-050; R&D Systems) at 500 ng/ml; chemical antagonist: 0.5 μM LDN-193189 (Cat No. 11802; Cayman Chemical) and 0.2 μM DMH1 (Cat No. 57146; Selleckchem).
(§5) VHH efficacy was evaluated by stimulating cells with 10 ng/ml of hBMP4 and 50 ng/ml of hBMP2, with and without increase concentrations (from 0.1-10 μg/ml) of VHH and anti-BMP4 antibodies: clone 66119, clone 3H2, clone M912262, clone PA354-16.1.1, Clone EPR6211, and anti-BMP4 (ab39973). […] Unstimulated cells were used as controls and wells with no cells used to normalize the background activity. […]

human BMP4 = test: as above; type: cell-based, mouse
Procedure: as §1, §2, §3, §4, §5

BMP7 = target: T2, BMP7; test: Surface plasmon resonance (SPR), BMPs injected over VHH-coated chip; type: binding; conditions: for Kd: molecule coupled to chip, unit inferred, — not defined there (Table 1: No binding detected)
Procedure: To confirm their BMP specificities and to elucidate their binding affinities, our VHHs were subjected to surface plasmon resonance (SPR) analysis. In a first set of experiments, controls and VHHs (either as monomers or dimers) were coupled to SPR chips and the measurement of BMP affinities was obtained by injecting the different BMPs to the plate.
Serial dilutions (2.0-10 μg/ml) of purified VHHs were spotted on an amine-specific SensEye gold-film gel-type SPRchip (Ssens), using a Continuous Flow Microspotter (Wasatch Microfluidics, Salt Lake City, Utah, United States) as described (Lokate et al., 2007). BMP binding was analyzed on an IBIS MX96 (IBIS Technologies, Enschede, The Netherlands) instrument by performing injections with dilution series (0.05-2.0 μg/ml) of recombinant BMPs on the VHH-coated chip. In each injection, BMPs were injected and incubated for 8 min, followed by 15 min thorough washing with binding buffer (PBS+0.05% Tween20+0.05% sodium azide) to measure dissociation. Epitope binning was done by injecting VHH dilutions (2.0 μg/ml) over the chip, immediately after the dissociation step. Injections with blank binding buffer were used as reference. After each concatenated injection, the chip was regenerated with 10 mM glycine-HCl, pH 2.0. Experimental data were processed with SPRintX software (IBIS Technologies) and kinetic parameters were determined using Scrubber2 software (BioLogic Software, Campbell, ACT, Australia). Binding constants were obtained by global fitting to a one-site binding model.

Molecule	inhibition of BMP-2 signals, comparison of inhibitors (BMP2; 50 ng/ml hBMP2, 16 h, VHH, Noggin, Gremlin 500 ng/ml, LDN 0.5 μM, DMH1 0.2 μM)	IC50 (BMP2; 50 ng/ml hBMP2, 16 hours, read-out: IC50, neutralization of BMP2) [nM]	inhibition of BMP4-derived signals, comparison of inhibitors (human BMP4; 10 ng/ml hBMP4, 16 h, VHH, Noggin, Gremlin 500 ng/ml, LDN 0.5 μM, DMH1 0.2 μM)	IC50 (human BMP4; 10 ng/ml hBMP4, 16 hours, read-out: IC50, neutralization of BMP4) [nM]	Kd (BMP7) [nM]	inhibition of BMP2-mediated transcriptional activation by dimers (BMP2; BMP2 50 ng/ml, 16 hours, increasing concentrations up to 5 μg/ml)	inhibition of BMP4-mediated transcriptional activation by dimers (human BMP4; BMP4 5 ng/ml, 16 hours, increasing concentrations)	unspecific binding of dimers to BMP7 (SPR, in words) (BMP7; in contrast to the functional results)
B1	greatly inhibit	~1.6	greatly inhibit	~0.54	80	–	–	–
B2	–	–	–	–	31	inhibit; also recorded: similar	inhibit; also recorded: similar	shown to bind
